Assay results from publication PMC9482650, “Quantitative fragmentomics allow affinity mapping of interactomes” (Nature Communications, 2022).

Legend:
Assay in all cases: holdup assay
Parameters in all cases: key: below the threshold = too weak to quantify, mostly under pKd 3.1 to 4
IL16_4, Q14005 = biological target: IL16_4, Q14005
LNX1_2, Q8TBB1 = biological target: LNX1_2, Q8TBB1
RADIL, Q96JH8 = biological target: T1, RADIL, Q96JH8
T1 sequence (Q96JH8 971-1071, limits assumed, looked up): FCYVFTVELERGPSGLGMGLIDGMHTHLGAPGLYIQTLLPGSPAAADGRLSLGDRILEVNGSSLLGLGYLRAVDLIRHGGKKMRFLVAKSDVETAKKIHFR

APBA3_1, O96018 = biological target: T2, APBA3_1, O96018
T2 sequence (O96018 389-490, limits assumed, looked up): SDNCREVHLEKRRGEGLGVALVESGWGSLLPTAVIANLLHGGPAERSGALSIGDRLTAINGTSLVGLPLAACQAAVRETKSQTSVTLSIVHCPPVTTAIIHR

DLG3_2, Q92796 = biological target: T3, DLG3_2, Q92796
T3 sequence (Q92796 221-321, limits assumed, looked up): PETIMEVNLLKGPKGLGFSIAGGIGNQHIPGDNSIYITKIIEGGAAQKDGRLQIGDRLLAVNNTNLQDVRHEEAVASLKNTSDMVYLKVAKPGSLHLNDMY

IL16_3, Q14005 = biological target: IL16_3, Q14005
TJP1_3, Q07157 = biological target: TJP1_3, Q07157
MPP2, Q14168 = biological target: T4, MPP2, Q14168
T4 sequence (Q14168 180-250, limits assumed, looked up): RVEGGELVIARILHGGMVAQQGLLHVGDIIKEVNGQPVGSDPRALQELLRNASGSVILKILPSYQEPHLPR

DLG5_1, Q8TDM6 = biological target: DLG5_1, Q8TDM6
DFNB31_3, Q9P202 = biological target: T5, DFNB31_3, Q9P202
T5 sequence (Q9P202 811-907, limits assumed, looked up): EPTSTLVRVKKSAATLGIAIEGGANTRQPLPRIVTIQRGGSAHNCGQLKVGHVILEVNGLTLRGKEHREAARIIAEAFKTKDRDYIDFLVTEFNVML

NOS1, P29475 = biological target: NOS1, P29475
GRASP, Q7Z6J2 = biological target: GRASP, Q7Z6J2
DFNB31_1, Q9P202 = biological target: T6, DFNB31_1, Q9P202
T6 sequence (Q9P202 135-233, limits assumed, looked up): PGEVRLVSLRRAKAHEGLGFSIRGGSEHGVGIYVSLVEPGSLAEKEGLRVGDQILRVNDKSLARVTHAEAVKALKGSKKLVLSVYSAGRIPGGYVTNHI

PDZRN3_1, Q9UPQ7 = biological target: T7, PDZRN3_1, Q9UPQ7
T7 sequence (Q9UPQ7 244-349, limits assumed, looked up): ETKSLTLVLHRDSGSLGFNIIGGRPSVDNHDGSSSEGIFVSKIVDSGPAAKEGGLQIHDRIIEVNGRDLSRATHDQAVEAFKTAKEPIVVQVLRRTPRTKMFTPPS

FRMPD3, Q5JV73 = biological target: FRMPD3, Q5JV73
Inadl_9, Q8NI35 = biological target: Inadl_9, Q8NI35
GORASP2, Q9H8Y8 = biological target: GORASP2, Q9H8Y8
GRIP2_6, Q9C0E4 = biological target: GRIP2_6, Q9C0E4
TIAM2, Q8IVF5 = biological target: T8, TIAM2, Q8IVF5
T8 sequence (Q8IVF5 885-986, limits assumed, looked up): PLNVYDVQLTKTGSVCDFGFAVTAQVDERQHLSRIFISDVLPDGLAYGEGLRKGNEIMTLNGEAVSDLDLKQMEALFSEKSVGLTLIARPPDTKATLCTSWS

GRIP2_4, Q9C0E4 = biological target: GRIP2_4, Q9C0E4
GRIP1_4, Q9Y3R0 = biological target: T9, GRIP1_4, Q9Y3R0
T9 sequence (Q9Y3R0 467-571, limits assumed, looked up): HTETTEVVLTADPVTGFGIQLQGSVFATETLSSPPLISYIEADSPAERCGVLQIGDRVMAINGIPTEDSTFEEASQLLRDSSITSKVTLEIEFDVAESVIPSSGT

MPDZ_12, O75970 = biological target: T10, MPDZ_12, O75970
T10 sequence (O75970 1857-1958, limits assumed, looked up): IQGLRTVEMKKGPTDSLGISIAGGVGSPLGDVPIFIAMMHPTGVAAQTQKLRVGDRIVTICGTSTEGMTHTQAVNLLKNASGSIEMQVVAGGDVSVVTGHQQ

MAGI2_2, Q86UL8 = biological target: MAGI2_2, Q86UL8
PICK1, Q9NRD5 = biological target: PICK1, Q9NRD5
HTRA3, P83110 = biological target: T11, HTRA3, P83110
T11 sequence (P83110 354-453, limits assumed, looked up): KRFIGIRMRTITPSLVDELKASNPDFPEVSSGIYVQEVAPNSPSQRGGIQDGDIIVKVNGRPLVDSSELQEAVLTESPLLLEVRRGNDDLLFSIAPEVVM

GRID2IP_2, A4D2P6 = biological target: GRID2IP_2, A4D2P6
[1] = plain residues with an end cap or a label only (N-terminal biotin on a linker: ttds)
[2] = plain residues with an end cap or a label only (N-terminal biotin on a linker: ahx)

Chain of DLG5_1, Q8TDM6 (Q8TDM6 617-713): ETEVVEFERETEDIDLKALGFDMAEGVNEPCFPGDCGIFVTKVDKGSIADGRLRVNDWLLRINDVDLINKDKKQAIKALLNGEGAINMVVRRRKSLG
Chain of Inadl_9, Q8NI35 (Q8NI35 1530-1615): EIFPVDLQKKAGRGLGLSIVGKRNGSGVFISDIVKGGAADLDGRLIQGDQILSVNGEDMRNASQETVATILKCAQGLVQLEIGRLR
Chain of IL16_3, Q14005 (Q14005 1107-1207): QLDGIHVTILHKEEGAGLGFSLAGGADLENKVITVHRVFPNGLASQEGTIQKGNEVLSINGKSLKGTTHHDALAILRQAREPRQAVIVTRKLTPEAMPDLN
Chain of LNX1_2, Q8TBB1 (Q8TBB1 371-470): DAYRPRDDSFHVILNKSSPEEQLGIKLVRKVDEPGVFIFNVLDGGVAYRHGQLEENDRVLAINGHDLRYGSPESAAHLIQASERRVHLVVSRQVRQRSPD
Chain of TJP1_3, Q07157 (Q07157 416-512): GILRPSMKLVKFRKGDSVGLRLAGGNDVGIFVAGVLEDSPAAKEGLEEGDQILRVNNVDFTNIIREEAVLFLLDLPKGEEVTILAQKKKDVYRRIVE
Chain of GRID2IP_2, A4D2P6 (A4D2P6 272-370): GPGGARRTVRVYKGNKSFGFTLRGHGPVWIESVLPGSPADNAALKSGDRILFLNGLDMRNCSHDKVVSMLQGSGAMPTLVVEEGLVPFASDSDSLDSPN
Chain of NOS1, P29475 (P29475 9-101): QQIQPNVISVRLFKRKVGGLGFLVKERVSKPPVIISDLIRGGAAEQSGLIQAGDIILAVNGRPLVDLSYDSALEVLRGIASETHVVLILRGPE
Chain of MAGI2_2, Q86UL8 (Q86UL8 410-522): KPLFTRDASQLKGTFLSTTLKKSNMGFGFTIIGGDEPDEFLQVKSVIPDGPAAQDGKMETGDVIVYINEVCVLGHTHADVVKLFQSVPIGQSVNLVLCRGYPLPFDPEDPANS
Chain of GRIP2_4, Q9C0E4 (Q9C0E4 446-548): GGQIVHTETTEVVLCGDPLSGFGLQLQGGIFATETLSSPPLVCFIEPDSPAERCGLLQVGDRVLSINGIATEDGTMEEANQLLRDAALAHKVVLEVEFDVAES
Chain of IL16_4, Q14005 (Q14005 1229-1329): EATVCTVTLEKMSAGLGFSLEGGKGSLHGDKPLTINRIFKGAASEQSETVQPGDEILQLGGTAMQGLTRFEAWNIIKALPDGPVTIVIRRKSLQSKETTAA
Chain of PICK1, Q9NRD5 (Q9NRD5 17-115): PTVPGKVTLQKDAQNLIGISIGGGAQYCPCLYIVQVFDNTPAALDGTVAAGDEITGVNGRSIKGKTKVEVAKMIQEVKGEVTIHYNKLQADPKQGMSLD
Chain of GRASP, Q7Z6J2 (Q7Z6J2 96-193): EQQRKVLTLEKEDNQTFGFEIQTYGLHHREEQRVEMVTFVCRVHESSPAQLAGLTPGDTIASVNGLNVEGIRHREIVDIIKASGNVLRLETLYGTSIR
Chain of GRIP2_6, Q9C0E4 (Q9C0E4 648-740): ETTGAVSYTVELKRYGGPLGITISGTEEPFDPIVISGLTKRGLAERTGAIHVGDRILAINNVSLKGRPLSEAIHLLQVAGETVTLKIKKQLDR
Chain of FRMPD3, Q5JV73 (Q5JV73 12-100): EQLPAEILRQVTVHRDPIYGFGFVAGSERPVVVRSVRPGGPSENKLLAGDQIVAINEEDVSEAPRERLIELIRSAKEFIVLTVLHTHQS

Binder: EVVHTPETSV [SLC16A3, O15427]
- pKd (IL16_4, Q14005; [1]): below the threshold
- pKd (LNX1_2, Q8TBB1; [1]): below the threshold
- pKd (RADIL, Q96JH8; [1]): below the threshold
- pKd (APBA3_1, O96018; [1]): below the threshold
- pKd (DLG3_2, Q92796; [1]): 4.08
- pKd (IL16_3, Q14005; [1]): below the threshold
- pKd (TJP1_3, Q07157; [1]): below the threshold
- pKd (MPP2, Q14168; [1]): below the threshold
- pKd (DLG5_1, Q8TDM6; [1]): below the threshold
- pKd (DFNB31_3, Q9P202; [1]): below the threshold
- pKd (NOS1, P29475; [1]): 3.71
- pKd (GRASP, Q7Z6J2; [1]): below the threshold
- pKd (DFNB31_1, Q9P202; [1]): 3.86
- pKd (PDZRN3_1, Q9UPQ7; [1]): 4.42
- pKd (FRMPD3, Q5JV73; [1]): below the threshold
- pKd (Inadl_9, Q8NI35; [1]): below the threshold
- pKd (GORASP2, Q9H8Y8; [1]): below the threshold
- pKd (GRIP2_6, Q9C0E4; [1]): below the threshold
- pKd (TIAM2, Q8IVF5; [1]): below the threshold
- pKd (GRIP2_4, Q9C0E4; [1]): below the threshold
- pKd (GRIP1_4, Q9Y3R0; [1]): below the threshold
- pKd (MPDZ_12, O75970; [1]): below the threshold
- pKd (MAGI2_2, Q86UL8; [1]): below the threshold
- pKd (PICK1, Q9NRD5; [1]): below the threshold
- pKd (HTRA3, P83110; [1]): below the threshold
- pKd (GRID2IP_2, A4D2P6; [1]): below the threshold

Binder: GYDWGPATDL [TJP3, O95049]
- pKd (IL16_4, Q14005; [2]): below the threshold
- pKd (LNX1_2, Q8TBB1; [2]): below the threshold
- pKd (RADIL, Q96JH8; [2]): below the threshold
- pKd (APBA3_1, O96018; [2]): below the threshold
- pKd (DLG3_2, Q92796; [2]): 3.78
- pKd (IL16_3, Q14005; [2]): below the threshold
- pKd (TJP1_3, Q07157; [2]): below the threshold
- pKd (MPP2, Q14168; [2]): below the threshold
- pKd (DLG5_1, Q8TDM6; [2]): below the threshold
- pKd (DFNB31_3, Q9P202; [2]): below the threshold
- pKd (NOS1, P29475; [2]): below the threshold
- pKd (GRASP, Q7Z6J2; [2]): 4.14
- pKd (DFNB31_1, Q9P202; [2]): 4.11
- pKd (PDZRN3_1, Q9UPQ7; [2]): 3.69
- pKd (FRMPD3, Q5JV73; [2]): below the threshold
- pKd (Inadl_9, Q8NI35; [2]): 3.6
- pKd (GORASP2, Q9H8Y8; [2]): below the threshold
- pKd (GRIP2_6, Q9C0E4; [2]): below the threshold
- pKd (TIAM2, Q8IVF5; [2]): below the threshold
- pKd (GRIP2_4, Q9C0E4; [2]): below the threshold
- pKd (GRIP1_4, Q9Y3R0; [2]): below the threshold
- pKd (MPDZ_12, O75970; [2]): below the threshold
- pKd (MAGI2_2, Q86UL8; [2]): below the threshold
- pKd (PICK1, Q9NRD5; [2]): below the threshold
- pKd (HTRA3, P83110; [2]): below the threshold
- pKd (GRID2IP_2, A4D2P6; [2]): 4.47

Binder: RLPKIKETTV [FRMPD4, Q14CM0]
- pKd (IL16_4, Q14005; [1]): below the threshold
- pKd (LNX1_2, Q8TBB1; [1]): 3.42
- pKd (RADIL, Q96JH8; [1]): below the threshold
- pKd (APBA3_1, O96018; [1]): below the threshold
- pKd (DLG3_2, Q92796; [1]): 5.6
- pKd (IL16_3, Q14005; [1]): below the threshold
- pKd (TJP1_3, Q07157; [1]): below the threshold
- pKd (MPP2, Q14168; [1]): below the threshold
- pKd (DLG5_1, Q8TDM6; [1]): below the threshold
- pKd (DFNB31_3, Q9P202; [1]): below the threshold
- pKd (NOS1, P29475; [1]): below the threshold
- pKd (GRASP, Q7Z6J2; [1]): 3.47
- pKd (DFNB31_1, Q9P202; [1]): 3.96
- pKd (PDZRN3_1, Q9UPQ7; [1]): 4.47
- pKd (FRMPD3, Q5JV73; [1]): below the threshold
- pKd (Inadl_9, Q8NI35; [1]): 3.48
- pKd (GORASP2, Q9H8Y8; [1]): 4.02
- pKd (GRIP2_6, Q9C0E4; [1]): 3.39
- pKd (TIAM2, Q8IVF5; [1]): below the threshold
- pKd (GRIP2_4, Q9C0E4; [1]): below the threshold
- pKd (GRIP1_4, Q9Y3R0; [1]): below the threshold
- pKd (MPDZ_12, O75970; [1]): below the threshold
- pKd (MAGI2_2, Q86UL8; [1]): 4.73
- pKd (PICK1, Q9NRD5; [1]): below the threshold
- pKd (HTRA3, P83110; [1]): below the threshold
- pKd (GRID2IP_2, A4D2P6; [1]): 3.74

Binder: HNAFLSVTTV [PDZRN4, Q6ZMN7]
- pKd (IL16_4, Q14005; [2]): 3.58
- pKd (LNX1_2, Q8TBB1; [2]): 3.65
- pKd (RADIL, Q96JH8; [2]): 3.61
- pKd (APBA3_1, O96018; [2]): below the threshold
- pKd (DLG3_2, Q92796; [2]): 3.61
- pKd (IL16_3, Q14005; [2]): below the threshold
- pKd (TJP1_3, Q07157; [2]): below the threshold
- pKd (MPP2, Q14168; [2]): below the threshold
- pKd (DLG5_1, Q8TDM6; [2]): below the threshold
- pKd (DFNB31_3, Q9P202; [2]): below the threshold
- pKd (NOS1, P29475; [2]): below the threshold
- pKd (GRASP, Q7Z6J2; [2]): 3.57
- pKd (DFNB31_1, Q9P202; [2]): below the threshold
- pKd (PDZRN3_1, Q9UPQ7; [2]): 3.56
- pKd (FRMPD3, Q5JV73; [2]): below the threshold
- pKd (Inadl_9, Q8NI35; [2]): below the threshold
- pKd (GORASP2, Q9H8Y8; [2]): 3.55
- pKd (GRIP2_6, Q9C0E4; [2]): 3.56
- pKd (TIAM2, Q8IVF5; [2]): below the threshold
- pKd (GRIP2_4, Q9C0E4; [2]): below the threshold
- pKd (GRIP1_4, Q9Y3R0; [2]): below the threshold
- pKd (MPDZ_12, O75970; [2]): below the threshold
- pKd (MAGI2_2, Q86UL8; [2]): 3.54
- pKd (PICK1, Q9NRD5; [2]): below the threshold
- pKd (HTRA3, P83110; [2]): below the threshold
- pKd (GRID2IP_2, A4D2P6; [2]): below the threshold
